Results taken from the supplement of paper PMC6755084.

The sequences below were run on F1*sub RNA substrate (template-directed ligation) (assay: fraction ligated after 30 min (ligated reads / total reads); higher = more ligase activity; sequences stand for … in GAGACCGCAACTGAAAAGTTGT…AGTTCTGCACGTAGAAGCAAAAGGC). Details: 42 °C.
How it was run: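 Oligo-pool templates underwent PCR amplification, T7 transcription and gel purification to yield ribozyme variants. Gel-separated ligated and unligated bands were converted to complementary DNA with barcoded primers and sequenced on a MiSeq, keeping core bases of quality ≥20. The ratio of ligated reads to total reads gave the fraction ligated for every variant.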
TATACTTGTCGTAAGACACTTTGGATGGGTTA [2d88] was tested, and the fraction ligated was 0.0592. Sequence “TATCACTGTCGTGACACTTTGGATGGGTTGA [3d1385]” has a fraction ligated of 0.854. In the case of “TATCACTTGTCGTAGACACTTTGAGGGTTGA [3d2044]”, the fraction ligated is reported as 0.0374. With “TATCACTTGTCGAAGACATTGGATGGGTTGA [3d1950]” the fraction ligated was 0.787. Work on ATCACTTGTCTAAGACACTTTGATGGGTTGA [3d179] yielded a fraction ligated of 0.594. “TATCACTTTCGTAAGACACTTTGGAGGGTTG [3d1580]” was tested, and the fraction ligated was 0.0276. Work on “TATCACTTTCGTAAGACACTTGGATGGGTTG [3d1567]” yielded a fraction ligated of 0.773. Work on ATCACTTTCGTAAGACACTTTGGATGGGTTG [3d139] yielded a fraction ligated of 0.777. Sequence “TATCACTTGTCGTAGACACTTTGATGGTTGA [3d2045]” has a fraction ligated of 0.0405. For TTCACTTGCGTAGACACTTTGGATGGGTTGA [3d374], the fraction ligated was 0.736. TATCCTGTCGTAAGACACTTTGATGGGTTGA [3d962] showed a fraction ligated of 0.754. Work on “TATCATTGTGTAAGACCTTTGGATGGGTTGA [3d1178]” yielded a fraction ligated of 0.875. Sequence “TATCACTTGTCGTAAAACTTTGGATGGTTGA [3d2064]” has a fraction ligated of 0.185. TTCACTTGTCGAAGACACTTGGATGGGTTGA [3d422] was tested, and the fraction ligated was 0.5. With TATACTTGTCGTAAGACACTTTGGTGGGTTA [3d940] the fraction ligated was 0.00259. For TTCACTTTCGTAAGACACTTTGGTGGGTTGA [3d366], the fraction ligated was 0.00787. Sequence TTCCTTGTCGTAAGACATTTGGATGGGTTGA [3d309] has a fraction ligated of 0.756. Sequence TATATTGTCGTAAGACCTTTGGATGGGTTGA [3d768] has a fraction ligated of 0.468. Work on “TATCACTTGTGTAAGACACTTGGAGGGTTGA [3d1789]” yielded a fraction ligated of 0.011. With TTCATTGTCTAAGACACTTTGGATGGGTTGA [3d321] the fraction ligated was 0.203. Sequence TACACTTGTCGTAAACACTTTGGATGGGTTG [3d681] has a fraction ligated of 0.0503. Work on TATACTTGTCGAAGACACTTTGGAGGGTTGA [3d866] yielded a fraction ligated of 0.0186. With “TATCACTTTCGTAAGACACTTGGATGGGTTA [3d1566]” the fraction ligated was 0.477. With “TATCACTGCGTAAGCACTTTGGATGGGTTGA [3d1332]” the fraction ligated was 0.826. Work on “TATCACTGTCGAGACACTTTGGATGGGTTGA [3d1372]” yielded a fraction ligated of 0.826. ATCACTTGTCGTAGACATTTGGATGGGTTGA [3d203] showed a fraction ligated of 0.731. For TATACTTGTCGTAAGACACTTGGATGGTTGA [3d929], the fraction ligated was 0.0929. For “TATCACTTCGTAAACACTTTGGATGGGTTGA [3d1315]”, the fraction ligated was 0.792. TACACTTGTCGTAAGACATTTGGATGGGTTA [3d712] showed a fraction ligated of 0.0725. “TATCACTTGTCGTAAGAACTTTGGATGGGTT [3d2181]” showed a fraction ligated of 0.219. Sequence “TATCATTGTCGTAAGACACTTTATGGGTTGA [3d1276]” has a fraction ligated of 0.0281. “TATCACTTTCTAAGACACTTGGATGGGTTGA [3d1486]” was tested, and the fraction ligated was 0.767. “TATCACTTGCGTAAGACACTTTGATGGTTGA [3d1691]” showed a fraction ligated of 0.1. TTCACTTGCGTAAGACACTTTGGATGGGTTGA [2d30] was tested, and the fraction ligated was 0.777. With “TATCATGTCGTAAGACACTTTGATGGGTTGA [3d1134]” the fraction ligated was 0.816. In the case of “TATCATGTCGTAAGACACTTTGGATGGGTTA [3d1138]”, the fraction ligated is reported as 0.641. “TATCACTTTCGTAAGCACTTGGATGGGTTGA [3d1532]” showed a fraction ligated of 0.772. “TATCACTTGTCGTAAAACTTGGATGGGTTGA [3d2060]” was tested, and the fraction ligated was 0.782. Sequence “TATCCTTGTCGTAAGACATTTGGATGGGTTG [3d1096]” has a fraction ligated of 0.772. In the case of ATCATTTCGTAAGACACTTTGGATGGGTTGA [3d87], the fraction ligated is reported as 0.654. With “TATCATTGTGTAGACACTTTGGATGGGTTGA [3d1174]” the fraction ligated was 0.856. With “TATCACTGTCGTAAGCACTTTGGAGGGTTGA [3d1414]” the fraction ligated was 0.0753. For “TATCATTGCGAAGACACTTTGGATGGGTTGA [3d1158]”, the fraction ligated was 0.8. In the case of “TATCCTTGTGTAGACACTTTGGATGGGTTGA [3d1002]”, the fraction ligated is reported as 0.808. “TATCATTGTCGTAAGAACTTTGGATGGTTGA [3d1252]” showed a fraction ligated of 0.0537. TTCACTTGTCGTAAGACCTTGGATGGGTTGA [3d470] was tested, and the fraction ligated was 0.678. ATCACTTGTCGTAGACACTTTGGATGGGTTG [3d210] showed a fraction ligated of 0.782. Work on “TATCACTTGTGTAAGACACTTTGGTGGGTTG [3d1802]” yielded a fraction ligated of 0.0157. “TATCACTTGTGTAAACACTTTGGATGGTTGA [3d1751]” gave a fraction ligated of 0.328. Work on TATCCTGTCGTAAGCACTTTGGATGGGTTGA [3d957] yielded a fraction ligated of 0.783. In the case of TTCACTTGTCGTAAGACACTTTGAGGGTTGA [3d493], the fraction ligated is reported as 0.0469. “TATCACTTGGTAAGACACTTTGGAGGGTTGA [3d1595]” showed a fraction ligated of 0.0523. TACACTTGTCGTAAGCACTTTGGATGGGTTGA [2d58] gave a fraction ligated of 0.183. Sequence “TATCACTTGTGTAAACACTTTGGAGGGTTGA [3d1750]” has a fraction ligated of 0.0713. TACACTTGTCGTAAGACACTTTGATGGTTGA [3d724] was tested, and the fraction ligated was 0.0498. “TATCACTTGTCGTAGCACTTGGATGGGTTGA [3d2006]” was tested, and the fraction ligated was 0.741. In the case of TTCATTGTCGTAAGACATTTGGATGGGTTGA [3d328], the fraction ligated is reported as 0.5. For “TATCACTTGTCGTAAGACATTTGGATGGTTA [3d2227]”, the fraction ligated was 0.0433. Work on TATACTTGTCGTAAGACACTTGGATGGGTTG [3d931] yielded a fraction ligated of 0.756. With TTCACTTGTCAAGACACTTTGGATGGGTTGA [3d402] the fraction ligated was 0.719. “TATCACTTGTCGTAAGACCTTTGAGGGTTGA [3d2192]” showed a fraction ligated of 0.0254. For “TATCACTTGCAAGACACTTTGGATGGGTTGA [3d1599]”, the fraction ligated was 0.798. In the case of ATCACTTTCGTAAGACACTTTGGTGGGTTGA [3d135], the fraction ligated is reported as 0.00882. Sequence “TATCACTTGTCGAACACTTTGGATGGGTTGA [3d1903]” has a fraction ligated of 0.802. “TATCACTTGTCGTAAGCACTTTGATGGGTTA [3d2139]” gave a fraction ligated of 0.124. In the case of ATCACTTCGTAAGACACTTTGGATGGGTTGA [3d106], the fraction ligated is reported as 0.761. Work on “TATCCTTGTGTAAGCACTTTGGATGGGTTGA [3d1004]” yielded a fraction ligated of 0.788. “TATCACTTGTCTAAGACACTTTGATGGGTTA [3d1889]” was tested, and the fraction ligated was 0.162. Work on ATCACTTGTTAAGACACTTTGGATGGGTTGA [3d156] yielded a fraction ligated of 0.787. “TATCACTTGCGTAAGACATTTGATGGGTTGA [3d1675]” showed a fraction ligated of 0.574. Work on TTCACTTGTCGTAAGACACTTTATGGGTTGA [3d491] yielded a fraction ligated of 0.00731. “TATCACTTGTCGTAAGAACTTTGGGGGTTGA [3d2172]” was tested, and the fraction ligated was 0.0507. For ATCACTTGCGTAAACACTTTGGATGGGTTGA [3d144], the fraction ligated was 0.758. With “TATCACTTGTGTAAGCACTTTGGATGGGTTA [3d1762]” the fraction ligated was 0.831. In the case of ATCACTTGTCGTAAGACACTTTGATGGGTTA [3d264], the fraction ligated is reported as 0.0628. “TATCACTTGTCGTAAGACCTTTGGAGGGTTGA [2d265]” showed a fraction ligated of 0.072. In the case of “TATCACTTGTCGTAAGAATTTGGATGGGTTA [3d2157]”, the fraction ligated is reported as 0.765. “TATCACTGTCTAAGACACTTTGGATGGGTTGA [2d132]” showed a fraction ligated of 0.818. Sequence ATCACTTGTCGTGACACTTTGGATGGGTTGA [3d198] has a fraction ligated of 0.746. Work on ACATTGTCGTAAGACACTTTGGATGGGTTGA [3d26] yielded a fraction ligated of 0.0699. “TATCACTTGTCGTAAGAATTTGGAGGGTTGA [3d2155]” was tested, and the fraction ligated was 0.0724. Sequence TATACTTGTCGTAAGAACTTTGGTGGGTTGA [3d906] has a fraction ligated of 0.0323. ATCACTTGTCGTAAGCACTTTGGATGGGTTG [3d230] showed a fraction ligated of 0.731. Work on TACACTTGTCGTAAACACTTTGGAGGGTTGA [3d678] yielded a fraction ligated of 0.0486. TATACTTGTCGTAAACACTTTGGATGGGTTGA [2d78] gave a fraction ligated of 0.493. In the case of TATCCTTGCGTAAGACACTTTGGATGGGTTGA [2d92], the fraction ligated is reported as 0.803. ATCACTTGTCGTAAGACACTTGGATGGGTTA [3d258] was tested, and the fraction ligated was 0.214. Work on TATACTTTGTAAGACACTTTGGATGGGTTGA [3d796] yielded a fraction ligated of 0.74. “TATCATTGCGTAAGCACTTTGGATGGGTTGA [3d1161]” gave a fraction ligated of 0.799. With TACACTTGTCAAGACACTTTGGATGGGTTGA [3d632] the fraction ligated was 0.167. “TATCATTGTCTAAGACACTTTGGATGGGTTG [3d1200]” gave a fraction ligated of 0.769. “TATCACTTGTTAAGACACTTTGGAGGGTTGA [3d1714]” gave a fraction ligated of 0.111. “TATCACTTGTCGAGACACTTGGATGGGTTGA [3d1908]” showed a fraction ligated of 0.793. ATCACTTGTCTAAGACACTTTGGATGGGTTGA [2d10] gave a fraction ligated of 0.765. “TATCACTTGTCTAAACACTTTGGTGGGTTGA [3d1841]” gave a fraction ligated of 0.116. Work on ATACTTGTCGTAAGAACTTTGGATGGGTTGA [3d57] yielded a fraction ligated of 0.448. Work on “TATCCTTGTCGTAAACACTTTGGATGGTTGA [3d1062]” yielded a fraction ligated of 0.0319. “TATCATTGTCGTAAGACACTTTGGATGGTTA [3d1289]” was tested, and the fraction ligated was 0.203. Work on “TATCACTTGTCGAAGCACTTTGGAGGGTTGA [3d1931]” yielded a fraction ligated of 0.108. “TATCACTTGCGTAAGCACTTTGGATGGGTTA [3d1657]” gave a fraction ligated of 0.812. In the case of “TATCACTTGTCTAAGACACTTTGATGGGTTG [3d1890]”, the fraction ligated is reported as 0.751. TACACTTGTCGAAGACACTTTGGATGGGTTA [3d657] gave a fraction ligated of 0.13. With “TATCACTTGCGTAAGACATTTGGATGGGTTA [3d1679]” the fraction ligated was 0.808. For ATCACTTTCGTAAGACACTTTGGATGGTTGA [3d137], the fraction ligated was 0.191. For ATCACTTTCGTAAGACACTTGGATGGGTTGA [3d133], the fraction ligated was 0.748. For TATACTTGTGTAAGACACTTTGGATGGGTTGA [2d74], the fraction ligated was 0.805. TACACTTGTCGAAGACACTTTGGTGGGTTGA [3d654] showed a fraction ligated of 0.115. In the case of TATACTGTCGTAAGACACTTTGGATGGGTTGA [2d71], the fraction ligated is reported as 0.797. “TATCACTGTCGAAGACACTTGGATGGGTTGA [3d1378]” was tested, and the fraction ligated was 0.812. TATACTTTCGTAAGACACTTTGGAGGGTTGA [3d808] gave a fraction ligated of 0.00847. With TTCACTTGTCGTAAGACACTTGGTGGGTTGA [3d486] the fraction ligated was 0.00989. With “TATCACTTGTCGTAAGACACTGGATGGGTTA [3d2236]” the fraction ligated was 0.751.
